Results on one molecule are retold here after patent US11597760 (dated 2023).

Test [1] concerns the target human C5 (human). Description: SPR, pH 7.4, 37C. In general terms: SPR reads the build-up and loss of mass on a sensor chip optically.
The next test concerns the target C5-D51A (human). Description: other, Western blot. In general terms: In western blotting, separated proteins are transferred to a membrane and probed.
Test [2] deals with human C5 (human). Description: SPR, pH 5.8, 37C.
The target of the next test is T1, cynomolgus C5 (cynomolgus monkey).
T1 chain: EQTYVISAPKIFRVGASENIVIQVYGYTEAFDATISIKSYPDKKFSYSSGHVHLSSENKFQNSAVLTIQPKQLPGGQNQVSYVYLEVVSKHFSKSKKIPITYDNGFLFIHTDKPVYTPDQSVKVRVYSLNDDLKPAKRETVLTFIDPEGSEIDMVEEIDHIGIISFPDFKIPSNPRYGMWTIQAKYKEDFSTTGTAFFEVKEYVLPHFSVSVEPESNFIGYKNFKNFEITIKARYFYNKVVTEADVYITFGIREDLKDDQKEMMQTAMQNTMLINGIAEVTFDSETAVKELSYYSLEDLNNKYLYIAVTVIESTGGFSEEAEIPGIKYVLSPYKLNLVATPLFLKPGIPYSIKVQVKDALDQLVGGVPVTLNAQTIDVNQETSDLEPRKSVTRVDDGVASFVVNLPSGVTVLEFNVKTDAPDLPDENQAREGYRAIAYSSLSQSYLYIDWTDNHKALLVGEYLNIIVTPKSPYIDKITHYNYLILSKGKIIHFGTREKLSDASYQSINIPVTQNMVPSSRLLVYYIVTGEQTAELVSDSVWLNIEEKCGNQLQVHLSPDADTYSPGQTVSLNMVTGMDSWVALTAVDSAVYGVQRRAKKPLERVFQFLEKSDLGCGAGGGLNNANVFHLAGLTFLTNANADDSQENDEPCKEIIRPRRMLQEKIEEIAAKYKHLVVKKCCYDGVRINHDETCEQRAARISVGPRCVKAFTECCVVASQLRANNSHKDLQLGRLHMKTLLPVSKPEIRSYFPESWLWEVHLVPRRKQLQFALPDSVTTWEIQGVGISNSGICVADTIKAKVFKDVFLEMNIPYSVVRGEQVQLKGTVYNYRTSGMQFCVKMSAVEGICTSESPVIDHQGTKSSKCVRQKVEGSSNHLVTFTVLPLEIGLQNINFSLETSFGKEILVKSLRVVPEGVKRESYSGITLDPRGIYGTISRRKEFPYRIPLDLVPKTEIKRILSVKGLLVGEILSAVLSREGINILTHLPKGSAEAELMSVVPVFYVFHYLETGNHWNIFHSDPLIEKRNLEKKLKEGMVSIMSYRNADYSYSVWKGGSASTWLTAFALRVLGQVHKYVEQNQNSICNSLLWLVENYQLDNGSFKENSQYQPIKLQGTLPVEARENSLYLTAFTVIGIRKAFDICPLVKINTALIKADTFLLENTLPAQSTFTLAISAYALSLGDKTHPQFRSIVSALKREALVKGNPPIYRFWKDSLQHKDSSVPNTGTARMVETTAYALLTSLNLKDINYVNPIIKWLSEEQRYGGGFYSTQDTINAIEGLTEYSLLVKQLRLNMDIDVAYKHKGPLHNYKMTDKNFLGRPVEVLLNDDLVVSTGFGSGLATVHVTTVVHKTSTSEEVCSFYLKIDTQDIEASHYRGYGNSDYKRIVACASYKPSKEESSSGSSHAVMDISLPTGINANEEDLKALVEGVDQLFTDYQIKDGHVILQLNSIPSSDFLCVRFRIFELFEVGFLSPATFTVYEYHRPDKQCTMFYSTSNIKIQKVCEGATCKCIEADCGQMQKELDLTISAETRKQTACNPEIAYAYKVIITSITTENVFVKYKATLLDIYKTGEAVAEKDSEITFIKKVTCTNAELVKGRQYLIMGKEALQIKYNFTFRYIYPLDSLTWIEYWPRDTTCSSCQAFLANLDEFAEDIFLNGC
Description: SPR, pH 7.4, 37C.

In another test the target is C5-K109A (human). Nature of the test: other, Western blot.

B1: CFA0305 (antibody, V domains shown)
VH: QSLEESGGDLVKPGASLAVTCTASGFSSSSSYYMCWVRQAPGKGLEWIGCIYTGSGATYYASWAKGRFTISKTSSTTVTLQMTSLTVADTATYFCASDGGYVTPTHAMYLWGPGTLVTVSS
VL: DVVMTQTPASVSAAVGGTVTIKCQASQNIGSDLAWYQQKPGQPPRLLIYGASKLASGVSSRFSGSGSGKEFTLTISDLECADAVTYYCQCTFVGSSYGNAFGGGTEVVVK
Usually Kd stands for the constant that tells how readily two partners part at equilibrium. Lower therefore signals higher affinity. Consider B1, for which the Kd with human C5 [1] came to 15.4 nM; with human C5 [2], 430 nM; with cynomolgus C5, 5.54 nM. In addition, the binding result with C5-D51A and with C5-K109A was “no binding” throughout.
